Measured values reported in IntAct's records for PubMed 31515488.

B1: Coiled-coil domain-containing protein 33 (Homo sapiens), Q8N5R6-5 (parent)
chain: MGEPGPPSPPAPKAAPGLIDSFSEMNNYRRAMQKMAEDILSLRRQASILEGENRILRSRLAQQEEEEGQGKASEAQNTVSMKQKLLLSELDMKKLRDRVQHLQNELIRKNDREKELLLLYQAQQPQAALLKQYQGKLQKMKALEETVRHQEKVIEKMERVLEDRLQDRSKPPPLNRQQGKPYTGFPMLSASGLPLGSMGENLPVELYSVLLAENAKLRTELDKNRHQQAPIILQQQALPVDPGELGAGGDLTERLQETHGPGHSECTETLPAQDLLSGTSDKFNLLAKLEHAQSRILSLESQLEDSARRWGREKQDLATRLQEQEKGFRHPSNSIIIEQPVSDPPGVAPRGSGGGAGSHRTPKVTGP
partner: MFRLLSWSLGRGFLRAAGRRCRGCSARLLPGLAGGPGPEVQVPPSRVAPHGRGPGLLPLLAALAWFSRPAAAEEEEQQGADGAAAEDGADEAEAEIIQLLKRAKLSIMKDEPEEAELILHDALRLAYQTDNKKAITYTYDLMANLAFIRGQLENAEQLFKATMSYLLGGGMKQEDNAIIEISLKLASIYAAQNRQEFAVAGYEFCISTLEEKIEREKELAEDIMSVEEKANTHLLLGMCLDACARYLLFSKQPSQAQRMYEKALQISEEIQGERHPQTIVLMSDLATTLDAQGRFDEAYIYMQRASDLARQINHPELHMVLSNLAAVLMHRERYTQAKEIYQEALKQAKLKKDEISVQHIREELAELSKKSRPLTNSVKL
B2: Tripartite motif-containing protein 59 (Homo sapiens), Q8IWR1 (parent)
chain: MHNFEEELTCPICYSIFEDPRVLPCSHTFCRNCLENILQASGNFYIWRPLRIPLKCPNCRSITEIAPTGIESLPVNFALRAIIEKYQQEDHPDIVTCPEHYRQPLNVYCLLDKKLVCGHCLTIGQHHGHPIDDLQSAYLKEKDTPQKLLEQLTDTHWTDLTHLIEKLKEQKSHSEKMIQGDKEAVLQYFKELNDTLEQKKKSFLTALCDVGNLINQEYTPQIERMKEIREQQLELMALTISLQEESPLKFLEKVDDVRQHVQILKQRPLPEVQPVEIYPRVSKILKEEWSRTEIGQIKNVLIPKMKISPKRMSCSWPGKDEKEVEFLKILNIVVVTLISVILMSILFFNQHIITFLSEITLIWFSEASLSVYQSLSNSLHKVKNILCHIFYLLKEFVWKIVSH
partner: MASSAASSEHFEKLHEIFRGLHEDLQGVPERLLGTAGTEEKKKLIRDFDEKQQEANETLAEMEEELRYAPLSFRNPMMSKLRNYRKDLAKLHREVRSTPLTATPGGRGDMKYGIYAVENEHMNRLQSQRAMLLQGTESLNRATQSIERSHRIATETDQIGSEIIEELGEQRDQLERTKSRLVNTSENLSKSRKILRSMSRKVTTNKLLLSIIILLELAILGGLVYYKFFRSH
B3: Notch homolog 2 N-terminal-like protein A (Homo sapiens), Q7Z3S9 (parent)
chain: MCVTYHNGTGYCKCPEGFLGEYCQHRDPCEKNRCQNGGTCVAQAMLGKATCRCASGFTGEDCQYSTSHPCFVSRPCLNGGTCHMLSRDTYECTCQVGFTGKECQWTDACLSHPCANGSTCTTVANQFSCKCLTGFTGQKCETDVNECDIPGHCQHGGTCLNLPGSYQCQCLQGFTGQYCDSLYVPCAPSPCVNGGTCRQTGDFTFECNCLPETVRRGTELWERDREVWNGKEHDEN
partner: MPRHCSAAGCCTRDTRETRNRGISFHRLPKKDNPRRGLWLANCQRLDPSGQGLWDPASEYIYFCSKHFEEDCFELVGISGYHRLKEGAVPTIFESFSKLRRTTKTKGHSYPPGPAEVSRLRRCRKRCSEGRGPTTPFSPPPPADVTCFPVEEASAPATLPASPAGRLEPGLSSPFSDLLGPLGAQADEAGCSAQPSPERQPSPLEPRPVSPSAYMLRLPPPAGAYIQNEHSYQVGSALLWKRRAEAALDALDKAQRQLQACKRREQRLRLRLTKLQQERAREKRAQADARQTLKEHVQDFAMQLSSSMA
B4: Geminin (Homo sapiens), O75496 (parent)
chain: MNPSMKQKQEEIKENIKNSSVPRRTLKMIQPSASGSLVGRENELSAGLSKRKHRNDHLTSTTSSPGVIVPESSENKNLGGVTQESFDLMIKENPSSQYWKEVAEKRRKALYEALKENEKLHKEIEQKDNEIARLKKENKELAEVAEHVQYMAELIERLNGEPLDNFESLDNQEFDSEEETVEDSLVEDSEIGTCAEGTVSSSTDAKPCI
partner: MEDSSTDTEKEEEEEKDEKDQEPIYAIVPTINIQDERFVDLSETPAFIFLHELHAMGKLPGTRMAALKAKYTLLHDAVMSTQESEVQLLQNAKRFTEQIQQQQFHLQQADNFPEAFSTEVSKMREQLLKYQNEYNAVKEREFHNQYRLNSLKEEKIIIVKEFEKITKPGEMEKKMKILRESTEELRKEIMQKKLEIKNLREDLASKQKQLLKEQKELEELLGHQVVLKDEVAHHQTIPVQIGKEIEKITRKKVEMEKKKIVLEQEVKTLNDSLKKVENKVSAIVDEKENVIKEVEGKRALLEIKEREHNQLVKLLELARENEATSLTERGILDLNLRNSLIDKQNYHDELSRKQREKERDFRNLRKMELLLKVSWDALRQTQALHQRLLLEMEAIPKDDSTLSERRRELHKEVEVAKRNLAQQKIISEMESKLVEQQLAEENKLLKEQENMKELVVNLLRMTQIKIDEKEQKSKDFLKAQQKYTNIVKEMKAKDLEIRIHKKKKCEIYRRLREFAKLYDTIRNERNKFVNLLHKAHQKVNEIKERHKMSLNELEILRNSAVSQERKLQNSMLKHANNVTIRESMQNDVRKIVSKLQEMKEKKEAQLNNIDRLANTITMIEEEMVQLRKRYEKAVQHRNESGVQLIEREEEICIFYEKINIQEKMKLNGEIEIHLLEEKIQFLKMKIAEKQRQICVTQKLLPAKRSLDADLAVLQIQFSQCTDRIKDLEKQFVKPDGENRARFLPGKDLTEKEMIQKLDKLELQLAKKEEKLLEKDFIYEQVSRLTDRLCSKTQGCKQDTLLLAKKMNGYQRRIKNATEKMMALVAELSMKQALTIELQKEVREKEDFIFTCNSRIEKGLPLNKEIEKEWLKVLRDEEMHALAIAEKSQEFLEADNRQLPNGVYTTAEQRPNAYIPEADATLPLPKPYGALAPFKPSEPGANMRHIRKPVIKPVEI
B5: Grancalcin (Homo sapiens), P28676 (parent)
chain: MAYPGYGGGFGNFSIQVPGMQMGQPVPETGPAILLDGYSGPAYSDTYSSAGDSVYTYFSAVAGQDGEVDAEELQRCLTQSGINGTYSPFSLETCRIMIAMLDRDHTGKMGFNAFKELWAALNAWKENFMTVDQDGSGTVEHHELRQAIGLMGYRLSPQTLTTIVKRYSKNGRIFFDDYVACCVKLRALTDFFRKRDHLQQGSANFIYDDFLQGTMAI
partner: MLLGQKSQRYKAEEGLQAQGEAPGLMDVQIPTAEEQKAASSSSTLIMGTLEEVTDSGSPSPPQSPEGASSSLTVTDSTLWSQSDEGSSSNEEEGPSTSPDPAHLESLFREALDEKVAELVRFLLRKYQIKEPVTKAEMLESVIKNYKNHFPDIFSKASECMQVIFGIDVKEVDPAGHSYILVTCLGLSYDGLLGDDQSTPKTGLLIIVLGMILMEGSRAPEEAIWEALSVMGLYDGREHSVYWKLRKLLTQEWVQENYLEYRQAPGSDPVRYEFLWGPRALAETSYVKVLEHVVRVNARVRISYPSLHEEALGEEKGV
B6: Microtubule-associated tumor suppressor candidate 2 (Homo sapiens), Q5JR59-3 (parent)
chain: MGHCCCKPYNCLQCLDKTNESALVKEKELSIELANIRDEVAFHTAKCEKLQKEKEELERRFEDEVKRLGWQQQAELQELEERLQLQFEAEMARLQEEHGDQLLSIRCQHQEQVEDLTASHDAALLEMENNHTVAITILQDDHDHKVQELMSTHELEKKELEENFEKLRLSLQDQVDTLTFQSQSLRDRARRFEEALRKNTEEQLEIALAPYQHLEEDMKSLKQVLEMKNQQIHEQEKKILELEKLAEKNIILEEKIQVLQQQNEDLKARIDQNTVVTRQLSEENANLQEYVEKETQEKKRLSRTNEELLWKLQTGDPTSPIKLSPTSPVYRGSSSGPSSPARVSTTPR
partner: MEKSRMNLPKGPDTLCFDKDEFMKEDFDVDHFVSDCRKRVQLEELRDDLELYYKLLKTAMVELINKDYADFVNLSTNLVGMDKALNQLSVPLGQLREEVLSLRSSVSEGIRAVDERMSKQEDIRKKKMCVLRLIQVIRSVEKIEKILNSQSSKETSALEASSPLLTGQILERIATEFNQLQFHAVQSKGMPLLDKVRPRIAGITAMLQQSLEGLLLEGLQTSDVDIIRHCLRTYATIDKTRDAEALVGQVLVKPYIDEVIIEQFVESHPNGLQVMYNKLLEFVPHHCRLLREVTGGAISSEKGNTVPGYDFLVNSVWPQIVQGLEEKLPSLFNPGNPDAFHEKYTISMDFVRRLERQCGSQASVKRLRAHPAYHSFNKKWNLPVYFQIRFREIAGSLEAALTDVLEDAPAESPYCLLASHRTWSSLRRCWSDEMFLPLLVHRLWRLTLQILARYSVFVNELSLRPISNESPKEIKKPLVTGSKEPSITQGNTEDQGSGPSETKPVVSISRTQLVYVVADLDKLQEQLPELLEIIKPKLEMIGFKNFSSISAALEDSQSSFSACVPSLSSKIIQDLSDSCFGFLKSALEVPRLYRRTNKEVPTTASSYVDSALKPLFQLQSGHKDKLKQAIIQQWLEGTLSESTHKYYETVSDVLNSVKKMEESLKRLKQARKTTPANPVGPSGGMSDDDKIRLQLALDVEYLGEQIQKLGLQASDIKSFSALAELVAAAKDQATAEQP
B7: Transcription factor 12 (Homo sapiens), Q99081 (parent)
chain: MNPQQQRMAAIGTDKELSDLLDFSAMFSPPVNSGKTRPTTLGSSQFSGSGIDERGGTTSWGTSGQPSPSYDSSRGFTDSPHYSDHLNDSRLGAHEGLSPTPFMNSNLMGKTSERGSFSLYSRDTGLPGCQSSLLRQDLGLGSPAQLSSSGKPGTAYYSFSATSSRRRPLHDSAALDPLQAKKVRKVPPGLPSSVYAPSPNSDDFNRESPSYPSPKPPTSMFASTFFMQDGTHNSSDLWSSSNGMSQPGFGGILGTSTSHMSQSSSYGNLHSHDRLSYPPHSVSPTDINTSLPPMSSFHRGSTSSSPYVAASHTPPINGSDSILGTRGNAAGSSQTGDALGKALASIYSPDHTSSSFPSNPSTPVGSPSPLTGTSQWPRPGGQAPSSPSYENSLHSLQSRMEDRLDRLDDAIHVLRNHAVGPSTSLPAGHSDIHSLLGPSHNAPIGSLNSNYGGSSLVASSRSASMVGTHREDSVSLNGNHSVLSSTVTTSSTDLNHKTQENYRGGLQSQSGTVVTTEIKTENKEKDENLHEPPSSDDMKSDDESSQKDIKVSSRGRTSSTNEDEDLNPEQKIEREKERRMANNARERLRVRDINEAFKELGRMCQLHLKSEKPQTKLLILHQAVAVILSLEQQVRERNLNPKAACLKRREEEKVSAVSAEPPTTLPGTHPGLSETTNPMGHM
partner: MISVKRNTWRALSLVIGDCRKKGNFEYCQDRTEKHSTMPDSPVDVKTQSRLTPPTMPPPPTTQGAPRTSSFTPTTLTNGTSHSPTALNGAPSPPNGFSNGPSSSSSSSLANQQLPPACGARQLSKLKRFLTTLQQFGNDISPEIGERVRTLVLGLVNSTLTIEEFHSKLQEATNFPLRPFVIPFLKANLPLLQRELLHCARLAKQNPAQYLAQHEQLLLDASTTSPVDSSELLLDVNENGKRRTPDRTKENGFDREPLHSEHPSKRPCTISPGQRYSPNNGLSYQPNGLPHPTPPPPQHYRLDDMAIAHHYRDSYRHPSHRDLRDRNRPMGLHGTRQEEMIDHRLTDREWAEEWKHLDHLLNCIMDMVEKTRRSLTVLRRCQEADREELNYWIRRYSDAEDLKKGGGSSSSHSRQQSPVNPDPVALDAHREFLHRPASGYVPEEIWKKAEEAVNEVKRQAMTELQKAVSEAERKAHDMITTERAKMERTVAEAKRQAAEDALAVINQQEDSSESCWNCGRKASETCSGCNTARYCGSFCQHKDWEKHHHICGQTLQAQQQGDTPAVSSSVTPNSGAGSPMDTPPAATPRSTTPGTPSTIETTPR

Variants of: B1
Conditions: with ttc19_human TTC19, Q6DKK2

Variant | effect of a mutation on the interaction
P203L | with no effect
R30L | with no effect

Variants of: B2
Conditions: with vti1b_human VTI1B

Variant | effect of a mutation on the interaction
I277V | with no effect

Variants of: B3
Conditions: with thap7_human THAP7, Q9BT49

Variant | effect of a mutation on the interaction
R74Q | with no effect
A115T | with no effect

Variants of: B4
Conditions: with cc146_human CCDC146, Q8IYE0

Variant | effect of a mutation on the interaction
N15H | with no effect
E167D | with no effect

Variants of: B5
Conditions: with maga8_human MAGEA8, P43361

Variant | effect of a mutation on the interaction
K115R | disrupting interaction strength
S80A | disrupting interaction strength

Variants of: B6
Conditions: with cog2_human COG2, Q14746

Variant | effect of a mutation on the interaction
A89V | with no effect

Variants of: B7
Conditions: with mtg8_human RUNX1T1, Q06455

Variant | effect of a mutation on the interaction
G300S | with no effect
